Patent US20210210159A1, “COMPUTATIONAL PROTEIN DESIGN USING TERTIARY OR QUATERNARY STRUCTURAL MOTIFS” (Trustees of Dartmouth College, priority 2018, published 2021)

Assay: Fast Protein Liquid Chromatography / size-exclusion chromatography, oligomeric state
Format: physicochemical
Conditions: concentration of at least 10 μM
Description: Based on the standards, the dimeric protein would be expected to elute at the volume indicated by a dotted line, which eliminates the possibility of design oligomerization.

native mCherry: Red Fluorescent Protein mCherry (PDB code 2H5Q), design template (SEQ ID NO. 1) [reference compound]
oligomeric state in solution: monomeric
